The results in this text go back to PMC12591191 (2025).

The target in assay [1] is T1, SIRT6 R65A (human, UniProt Q8N6T7 1-355, R65A). Description: BLI; Mg2+.
Assay [2] addresses T2, SIRT6 S56Y (human, UniProt Q8N6T7 1-355, S56Y). Description: BLI; Mg2+.
In assay [3] the target is T3, SIRT6 H133Y (human, UniProt Q8N6T7 1-355, H133Y). Kind of assay: BLI; Mg2+. On the technique in general: In BLI a coated tip is dipped into the sample, and binding shifts an interference pattern.
For another assay, the target named is SIRT6 G60A (Homo sapiens). Kind of assay: BLI.
Chain of SIRT6 G60A (Homo sapiens) (chain, as listed by the source G60A): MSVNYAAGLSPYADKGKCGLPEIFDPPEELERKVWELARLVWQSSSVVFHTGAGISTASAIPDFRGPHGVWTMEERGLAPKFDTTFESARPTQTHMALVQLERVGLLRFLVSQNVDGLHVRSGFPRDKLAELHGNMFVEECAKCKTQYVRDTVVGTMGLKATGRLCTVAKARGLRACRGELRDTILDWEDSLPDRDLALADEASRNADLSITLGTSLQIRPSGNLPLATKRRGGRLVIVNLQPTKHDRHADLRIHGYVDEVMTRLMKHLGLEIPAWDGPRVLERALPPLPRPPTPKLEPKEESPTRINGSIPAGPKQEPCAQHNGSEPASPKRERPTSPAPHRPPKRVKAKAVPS
In assay [4] the target is T1, SIRT6 R65A. Kind of assay: BLI.
Assay [5] has as its target T2, SIRT6 S56Y. Kind of assay: BLI.
The target in assay [6] is T3, SIRT6 H133Y. Kind of assay: BLI.

Where no end group is shown, it is not given here. The star is where a group is joined. Biotin = O=C1N[C@H]2[C@H](CS[C@H]2CCCCC(=O)*)N1; Myristoyl = CCCCCCCCCCCCCC(=O)*

What is called Kd is the constant that tells how readily two partners part at equilibrium. Lower therefore signals tighter binding.

T2 sequence (Q8N6T7 whole entry S56Y): as the sequence (chain, as listed by the source G60A) above, with S56Y, A60G counted along it
T3 sequence (Q8N6T7 whole entry H133Y): as the sequence (chain, as listed by the source G60A) above, with A60G, H133Y counted along it
T1 sequence (Q8N6T7 whole entry R65A): as the sequence (chain, as listed by the source G60A) above, with A60G, R65A counted along it

B1: B-H3K9^Myr-5R (biotin-KQTARK^MyrSTGGKARRRRR) (peptide)
peptide: Biotin-KQTARK(Myristoyl)STGGKARRRRR
B1: the Kd with SIRT6 R65A [1] was found to be 1800 nM; in the assay with SIRT6 S56Y [2], 610 nM; with SIRT6 H133Y [3] it was 680 nM; in the assay with SIRT6 G60A, 1300 nM; with SIRT6 R65A [4] it was 2000 nM; with SIRT6 S56Y [5], 1600 nM. The molecule further had a Kd with SIRT6 H133Y [6] of 3200 nM.
